Test results: patent publication US20220380455A1 (Alector, published 2022)
“And” between values parts separate entries of the source, which are not always exact repeats. Identical values can stand only once.

T1: cynomolgus (cyno) MS4A6A (cynomolgus, UniProt Q9H2W1 1-246 (human entry))
T1 construct: Full-length protein expressed in transfected HEK293, U937 or K562 cells (flow cytometry)
T1 chain: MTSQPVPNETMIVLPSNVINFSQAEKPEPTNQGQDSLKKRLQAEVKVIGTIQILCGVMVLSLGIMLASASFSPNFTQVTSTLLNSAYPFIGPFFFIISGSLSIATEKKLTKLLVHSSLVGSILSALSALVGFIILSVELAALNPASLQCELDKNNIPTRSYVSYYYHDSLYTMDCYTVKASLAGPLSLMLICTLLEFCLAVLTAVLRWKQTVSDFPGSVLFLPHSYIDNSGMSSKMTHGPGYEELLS

T2: MS4A6A ECL2 peptide (human)
T2 construct: also called MS4A6A ECL-2 peptides
T2 peptide: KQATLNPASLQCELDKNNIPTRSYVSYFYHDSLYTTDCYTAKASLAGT

T3: MS4A6A ECL1 peptide (human)
T3 construct: the description elsewhere gives ECL1 as 68-84; Human and cyno ECL1 are said to be identical
T3 peptide: SASFSPNFTQVTSTLLNS


Experiments:
cynomolgus (cyno) MS4A6A [1] = biological target: T1, cynomolgus (cyno) MS4A6A; test: flow cytometry, hybridoma supernatant, HEK293 transfected with cyno MS4A6A over parental HEK293; Screen 1
Description: (§1) Positive clones were expanded and then rescreened for specificity against HEK293 cells overexpressing cyno MS4A6A and parental HEK293 cells. Briefly, previously prepared, cryopreserved transiently-transfected cells were labeled with LIVE/DEAD Fixable Aqua Dead Cell Stain Kit (ThermoFisher Scientific L34957) on ice for 30 minutes. After a wash with PBS, 2×10⁵ cells were aliquoted per well in 96-well round bottom plates and incubated with 50 μl of culture supernatant on ice for 30 mins. […] Following this secondary incubation, the cells were again washed twice with ice-cold FACS buffer and resuspended in a final volume of 200 μl of FACS buffer. Analysis was performed on a FACS Canto system (BD Biosciences), with sort gates drawn to exclude dead (Aqua-positive) cells. […] The screen was repeated twice, and the numbers reported here represent the ratio of mean fluorescence level in transfected cells over parental cells.

cynomolgus (cyno) MS4A6A [2] = biological target: T1, cynomolgus (cyno) MS4A6A; test: flow cytometry, hybridoma supernatant, HEK293 transfected with cyno MS4A6A over parental HEK293; Screen 2
Description: as §1

MS4A6A ECL2 peptide = biological target: T2, MS4A6A ECL2 peptide; test: array SPR (Carterra MX-96), antibody captured on anti-mouse IgG-Fc, ECL2 peptide injected
Description: Binding kinetic characterization of the purified antibodies to MS4A6A ECL1 and ECL2 peptides was performed by Carterra (South San Francisco, Calif.) using a proprietary array Surface Plasmon Resonance (SPR) instrument (MX-96) as follows. Antibodies were printed onto a CMD5OOD chip (Xantec #SPMX CMD500D lot #SC CMD500D0117.a Exp. 31.12.18) using the Continuous Flow Microspotter (CFM). First, the chip was activated with 100 mM MES pH 5.5, 100 μL EDC (133 mM final), 100 μL of S-NHS (33.3 mM final), for 7 minutes. A lawn of anti-mouse IgG-Fc (Jackson ImmunoResearch CAT #115-005-071 lot#130410) was injected for 15 minutes to establish a surface density of 10000-12000 RU, after which the chip surface was deactivated with 1 M ethanolamine at pH 8.5 for 10 minutes. Anti-MS4A6A antibodies in question, in the form of hybridoma supernatants diluted 2:1 with HBS-EP+buffer (Teknova CAT #H8022), were then printed as duplicates with a 20 minute and a 5 minutes print from the same sample solution. Control antibodies were diluted to 20 μ/ml for printing.
To perform kinetic analysis, the peptides in question were prepared in HBS-EP+buffer with lmg/ml BSA at final assay concentrations of 2000 nM, 400 nM, 80 nM, 16 nmM, and 3.2 nM. These were then injected on the chip for five minutes, followed by a seven-minute dissociation period at 8 uL per second in a non-regenerative kinetic series. Duplicate measurements for each anti-MS4A6A antibody were taken to ensure reproducibility.
Kₐ (association rate constant; Kₒₙ), Kd (dissociation rate constant; Koff) and KD (equilibrium constant) to MS4A6A ECL-2 peptides were calculated for each of the 23 anti-MS4A6A antibodies tested, the results of which are shown below in Table 5 (clones that bound too weakly to determine these values are denoted as N/A in Table 5).

MS4A6A ECL1 peptide = biological target: T3, MS4A6A ECL1 peptide; test: peptide ELISA, hybridoma supernatant
Description: Anti-MS4A6A hybridoma supernatants were tested for binding to MS4A6A peptides derived from ECL1 (amino acid residues 68-85 of human MS4A6A of SEQ ID NO:1) and ECL2 (amino acid residues 138-185 of human MS4A6A of SEQ ID NO:1) sequences, using an enzyme-linked immunosorbent assay (ELISA). Briefly, 96-well polystyrene plates were coated with 1-10 μg/mL of synthetic free or BSA-conjugated peptides in coating buffer (0.05M carbonate buffer, pH9.6, Millipore Sigma C3041) overnight at 4° C. Coated plates were then blocked with ELISA diluent (PBS+0.5% BSA+0.05% Tween20) for 1-hour, washed 3×300 μL in PBST (PBS+0.05% Tween20, Thermo 28352), and then the antibodies were added at various dilutions (100-1000×) in ELISA diluent. After 30 mins incubation (room temperature, with shaking), the plates were washed 3×300 μl in PBST. A secondary anti-mouse HRP antibody (Jackson Immunoresearch CAT #115-035-003) was added at a 1:1000 dilution in ELISA diluent (50 μL/well) and incubated for 30 minutes at room temperature with shaking. After a final set of washes (3×300 μl in PBST), 50 μL of TMB substrate (BioFx TMBW-1000-01) was added and the reaction was then quenched after 5-10 mins with 50 μL of stop solution (BioFx BSTP-1000-01). The quenched reaction wells were detected for absorbance at […] with a BioTek Synergy Microplate Reader using GENS 2.04 software.

| Binder | ratio of APC MFI on MS4A6A+/HEK parental cells (cynomolgus (cyno) MS4A6A [1]) | ratio of APC MFI on MS4A6A+/HEK parental cells (cynomolgus (cyno) MS4A6A [2]) | Kd (MS4A6A ECL2 peptide) | koff (MS4A6A ECL2 peptide) | kon (MS4A6A ECL2 peptide) | binding result (MS4A6A ECL1 peptide) |
| --- | --- | --- | --- | --- | --- | --- |
| 6A-12 (antibody, V domains shown, Mouse hybridoma antibody, tested as hybridoma supernatant (mouse IgG, detected or captured via anti-mouse IgG Fc); also called anti-MS4A6A antibody 6A-12) VH: EVQLQQSGPELVKPGASVKISCKASGYSFTGYYMHWVKQSPEDSLEWIGAINPSTGGSTYSQKFKDKATLTVDKSSSTAYMQLKSLTSEESAVYYCTRFDGYGYWGQGTLVTVSS VL: DIVMTQAAFSNPVTLGTSASISCRSSKSLLHSNGITYLYWYLQKPGQSLQLLIYQMSNLASGVPDRFSGSGSGTDFTLRISRVEAEDVGVYYCAQNLELPWTFGGGTKLEIK | 40.3 ratio | 45.5 ratio | 160 nM and 130 nM | 0.00081 s⁻¹ and 0.00067 s⁻¹ | 5200 M⁻¹ s⁻¹ and 5100 M⁻¹ s⁻¹ | no binding |
| 6A-13 (antibody, V domains shown, Mouse hybridoma antibody, tested as hybridoma supernatant (mouse IgG, detected or captured via anti-mouse IgG Fc); also called anti-MS4A6A antibody 6A-13) VH: EVKVVESGGGLVQPGGSLRLSCATAGFTFTDYYMTWVRQPPGKALEWLGFIRNKANGYTTEYNSSVKGRFTISRDNSRSILYLQMNTLRAEDSATYYCARSMDYWGQGTSVTVSS VL: NIVMTQSPNSMSMSVGERVTLSCKASENVGTYVSWYQQKPDQSPKLLIYGASNRYTGVPDRFTGGGSATDFTLTISSVQAEDLADYHCGQTYSFPYTFGGGTKLEIK | 24.8 ratio | 30.3 ratio | 140 nM and 180 nM | 0.00066 s⁻¹ and 0.00092 s⁻¹ | 4800 M⁻¹ s⁻¹ and 5300 M⁻¹ s⁻¹ | no binding |
| 6A-14 (antibody, V domains shown, Mouse hybridoma antibody, tested as hybridoma supernatant (mouse IgG, detected or captured via anti-mouse IgG Fc); also called anti-MS4A6A antibody 6A-14) VH: QVQLKQSGPGLVQPSQSLSITCTVSGFSLTTYGVHWVRQSPGKGLEWLGVIWSGGSTDYNAAFISRLNISKDNSKSQVFFKMNSLQANDTAIYYCARGYGSSYEYFDVWGAGTTVTVSS VL: DIVLTQSPASLAVSLGQRATISCRASESVDSYGNSFMHWYQQKPGQPPKLLIYRASNLESGIPARFSGSGSRTDFTLTINPVEADDVATYYCQQSNEDPLTFGAGTKLELK | 20.2 ratio | 59.1 ratio | 170 nM and 150 nM | 0.00096 s⁻¹ and 0.001 s⁻¹ | 5700 M⁻¹ s⁻¹ and 6900 M⁻¹ s⁻¹ | no binding |
| 6A-15 (antibody, V domains shown, Mouse hybridoma antibody, tested as hybridoma supernatant (mouse IgG, detected or captured via anti-mouse IgG Fc); also called anti-MS4A6A antibody 6A-15) VH: EVMLVESGGGLVKPGGSLKLSCAASGFTFSSHAMSWVRQTPEKRLEWVATISSGDSYTYYPDSVKGRFTISRDNAKNTLYLQMTSLRSEDTAMYYCIRHIYYGNLYYAMDYWGQGTSVTVSS VL: DVLMTQTPLSLPVSLGDQASISCRSSQSIIHNNGNTYLEWYLQKPGQSPKLLIYKVSNRFSGVPDRFSGSGSGTYFTLKISRVEADDLGVYYCFQGSHVPWTFGGGTKLEIK | 3.8 ratio | 8.4 ratio | 76 nM and 86 nM | 0.00038 s⁻¹ and 0.00043 s⁻¹ | 5000 M⁻¹ s⁻¹ | no binding |
| 6A-9 (antibody, V domains shown, Mouse hybridoma antibody, tested as hybridoma supernatant (mouse IgG, detected or captured via anti-mouse IgG Fc); also called anti-MS4A6A antibody 6A-9) VH: EVQLQQSGPELVKPGASVKISCKASGYSFTGYYIHWVKESHVKSLEWIGRINPKNGVTSYNQNFKDKASLTVDRSSSTAYMDLYSLTSEDSAVYYCASTFITGWGQGTSLTVSS VL: DVLLTQAPLSLPVSLGDQASISCRSSQTIVHSDGNTYLEWYLQKPGQSPKLLIYTVSNRFSGVPDRFSGSGSGTDFTLKISRVEAEDLGVYYCFQGSHVPWTFGGGTKLEIK | 12.6 ratio | 84 ratio | 290 nM | 0.0011 s⁻¹ | 3900 M⁻¹ s⁻¹ | no binding |
| 6A-16 (antibody, V domains shown, Mouse hybridoma antibody, tested as hybridoma supernatant (mouse IgG, detected or captured via anti-mouse IgG Fc); also called anti-MS4A6A antibody 6A-16) VH: EVQLQQSGPELVKPGASVKISCKASGYSFTGYYIHWVKESHVKSLEWIGRINPKNGVTSYNQNFKDKASLTVDRSSSTAYMDLYSLTSEDSAVYYCASTFITGWGQGTTVTVSS VL: DVLLTQAPLSLPVSLGDQASISCRSSQTIVHSDGNTYLEWYLQKPGQSPKLLIYTVSNRFSGVPDRFSGSGSGTDFTLKISRVEAEDLGVYYCFQGSHVPWTFGGGTKLEIK | 14.4 ratio | 28.5 ratio | 180 nM and 150 nM | 0.00097 s⁻¹ and 0.00049 s⁻¹ | 5500 M⁻¹ s⁻¹ and 3400 M⁻¹ s⁻¹ | no binding |
| 6A-18 (antibody, V domains shown, Mouse hybridoma antibody, tested as hybridoma supernatant (mouse IgG, detected or captured via anti-mouse IgG Fc); also called anti-MS4A6A antibody 6A-18) VH: EVQLQQSGPELVKPGASVKISCKASGYSFTGYYIHWVKESHVKSLEWIGRINPKNGVTSYNQNFKDKASLTVDRSSSTAYMDLYSLTSEDSAVYYCASTFITGWGQGTSLTVSS VL: DVLLTQAPLSLPVSLGDQASISCRSSQTIVHSDGNTYLEWYLQKPGQSPKLLIYTVSNRFSGVPDRFSGSGSGTDFTLKISRVEAEDLGVYYCFQGSHVPWTFGGGTKLEIK | 4.1 ratio | 20.3 ratio | 180 nM | 0.00049 s⁻¹ | 2700 M⁻¹ s⁻¹ | no binding |
| 6A-21 (antibody, V domains shown, Mouse hybridoma antibody, tested as hybridoma supernatant (mouse IgG, detected or captured via anti-mouse IgG Fc); also called anti-MS4A6A antibody 6A-21) VH: EVQLQQSGPELVKPGASVKMSCKASGYTFTDYFMKWVKQSHGKSLEWIGDINPKNGDTFYNQKFKGKATLTVDKSSSTAYMQLNSLTSEDSAVYYCARPGYFDVWGAGTTVTVSS VL: not shown | 71.8 ratio | 136 ratio | 200 nM | 0.001 s⁻¹ | 5300 M⁻¹ s⁻¹ | no binding |
| 6A-22 (antibody, V domains shown, Mouse hybridoma antibody, tested as hybridoma supernatant (mouse IgG, detected or captured via anti-mouse IgG Fc); also called anti-MS4A6A antibody 6A-22) VH: EVNLEESGGDLVQPGGSMKLSCLASGFTFSDAWMDWVRQSPEKGLEWVAEIKNKANNYVTFYAASVKGRFTISRDDSKSSVYLQMNNLRPEDTGIYFCTRGSVYGNWFPYWGQGTLVTVSA VL: DIVMSQSPSSLAVSAGEKVTMTCKSSQSLFNSRTRKNYLTWYQQKPGQSPKVLIYWASTRESGVPDRFTGSGSGTDFSLTISSVQADDLAVYYCKQSYNLLTFGAGTRLELK | 175 ratio | 68.8 ratio | 390 nM and 250 nM | 0.0023 s⁻¹ and 0.0021 s⁻¹ | 6000 M⁻¹ s⁻¹ and 8400 M⁻¹ s⁻¹ | no binding |
| 6A-11 (antibody, V domains shown, Mouse hybridoma antibody, tested as hybridoma supernatant (mouse IgG, detected or captured via anti-mouse IgG Fc); also called anti-MS4A6A antibody 6A-11) VH: EVQLQQSGPDLVKPGASVKISCKASGYSFTGYYIHWVKQSHIKSLEWIGRINPNNGATNYNQIFKDKATLTVDRSSSTAYMDLHSLTSEDSAVYYCVSTFITGWGQGTTLTVSS VL: DVLLTQTPLSLPVSLGDQASISCRSSQTIVHSDGNTYLEWYLQRPGLSPKLLIYKVSIRFSGVPDRFSGSGSGTDFTLKISRVEAEDLGVYYCFQGSHVPWTFGGGTKLEIK | 8.6 ratio | 61.7 ratio |  |  |  | no binding |
